{"source": "patent US20250177445A1", "about": "(A2 BIOTHERAPEUTICS, published 2025)", "binders": {"B1": {"name": "HLA-E activator receptor (third generation CAR: HLA-E scFv, CD8 hinge, CD28 transmembrane domain, CD28/41BB/CD3 intracellular domain) (receptor)", "chain": "QVQLRESGPSLVKPSQTLSLTCTVSGFSLTSYGVHWVRQPPGKGLEWLGVIWTGGTTNYNTALMSRLSITKDNSKSQVFLKMNSLQTDDTAIYYCARDGDSYNREAWFAYWGQGTLVTVSAGGGGSGGGGSGGGGSGGQIVLTQSPAVISASPGEKVILTCSASSSVSYMHWFQQKPGTSPKLWIYGTSNLASGVPARFSGGGSGTSYSLTISRMEAEDAATYYCQQRSRYPFTFGSGTKLEIKTTTPAPRPPTPAPTIASQPLSLRPEACRPAAGGAVHTRGLDFACDFWVLVVVGGVLACYSLLVTVAFIIFWVRSKRSRLLHSDYMNMTPRRPGPTRKHYQPYAPPRDFAAYRSKRGRKKLLYIFKQPFMRPVQTTQEEDGCSCRFPEEEEGGCELRVKFSRSADAPAYKQGQNQLYNELNLGRREEYDVLDKRRGRDPEMGGKPRRKNPQEGLYNELQKDKMAEAYSEIGMKGERRRGKGHDGLYQGLSTATKDTYDALHMQALPPR"}}, "target": "HLA-E*01:03 expressed on HLA-E knockout HeLa cells by mRNA transfection (human, UniProt P13747 22-358)", "assay": "cell-based or functional assay", "data": [{"binder": "B1", "values": [{"measurement": "EC50 of specific killing of HeLa cells by primary T cells", "result": "~10000", "unit": "HLA-E molecules"}]}]}
